# Data taken from patent US20100266587A1, “Compositions and Methods to Treat Acute Myelogenous Leukemia” (BIOGEN IDEC MA INC., priority 2009, published 2010).
# B1: natalizumab (antibody, human IgG4, kappa, V domains shown)
# VH: QVQLVQSGAEVKKPGASVKVSCKASGFNIKDTYIHWVRQAPGQRLEWMGRIDPANGYTKYDPKFQGRVTITADTSASTAYMELSSLRSEDTAVYYCAREGYYGNYGVYAMDYWGQGTLVTVSS
# VL: DIQMTQSPSSLSASVGDRVTITCKTSQDINKYMAWYQQTPGKAPRLLIHYTSALQPGIPSRFSGSGSGRDYTFTISSLQPEDIATYYCLQYDNLWTFGQGTKVEIKR
# modifications: Glutamine 1 cyclized to pyroGlutamic Acid; C-terminal Lysine is removed posttranslationally
# notes: Humanized version of murine monoclonal antibody 21.6; also called AN100226; TYSABRI
# Columns and labels:
# [1] = tested on: VLA-4 and VLA-5 adhesion to fibronectin; conditions: cited from earlier work
# [2] = tested on: fibronectin-dependent cell adhesion; conditions: cited from earlier work
# MM cell line U226 = assay: Adhesion mediated drug resistance, MM cells, melphalan; assay type: cell-based
# Method: (§1) FIGS. 6A-6D are graphs showing the results of natalizumab on cell adhesion mediated drug resistance. FIG. 6A depicts the percentage of viable HL60 cells remaining after the cells were cocultured for 24 hours with (▪) or without (□) BMSC, then exposed to the chemotherapy drug AraC (cytarabine) for 24 hours. FIG. 6B depicts the percentage of apoptotic cells (Annexin V+, 7AAD) after cocultured HL60 cells were incubated with natalizumab or isotype control antibody for 4 hr., and then exposed to an effective AraC dose as determined from FIG. 6A for 24 hours. FIGS. 6C and 6D show the results of similar experiments conducted with U266 cells exposed to melphalan.
# [3] = tested on: tumor cell binding to VLA-4 ligands; assay: Maximally attainable inhibition of tumor cell binding to VLA-4 ligands at saturating antibody; assay type: cell-based; conditions: saturating levels of natalizumab (20 μg/mL) vs isotype control
# Method: FIGS. 3A and 3B are graphs showing the effect of natalizumab on HL60 and KG1 AML tumor cell adhesion to VLA-4 ligands fibronectin (• FN), vascular adhesion molecule-1-Ig fusion protein (▪ VCAM-Ig), or bone marrow stromal cells (▴ BMSC), in the presence of natalizumab or an isotype control antibody in serial dilutions starting at 20 μg/ml. FIGS. 3C and 3D show inhibition of binding of HL60 and KG1 AML cells to VLA-4 ligands in the presence saturating levels of natalizumab (20 μg/mL) (solid bars) or isotype control (clear bars).
# (§2) FIGS. 4A and 4B are graphs showing the effect of natalizumab on H929 and U266 mM tumor cell adhesion to VLA-4 ligands fibronectin (• FN), vascular adhesion molecule-1-Ig fusion protein (▪ VCAM-Ig), or bone marrow stromal cells (▴ BMSC). Adhesion was assayed in the presence of natalizumab or an isotype control antibody in serial dilutions starting at 20 μg/ml.
# as §2, with “5A” for “4A”, “5B” for “4B”, “Mec1” for “H929”, “JM1 CLL” for “U266 mM”
# Experiments were conducted to test whether a VLA-4 antagonist can inhibit binding of tumor cells to a VLA-4 ligand. […]
# P-STAT3 = assay: Western blot of coculture-induced survival signaling; assay type: cell-based; conditions: cells cocultured with BMSCs, 30 minutes (HL60) or 4 hr (U266)
# Method: FIG. 7 is a panel of Western blots assaying for P-STAT3, STAT3, P-JNK, JNK, P-MAPK, and MAPK levels in HL60, KG1 or U266 cells grown in suspension or cocultured with BMSCs and natalizumab, as indicated, for 30 minutes (HL60) or 4 hours (U266).
# HL60, KG1 or U266 cells were grown in suspension or coculture with BMSCs and natalizumab, as indicated, for 30 minutes (HL60) or 4 hr (U266), and then the cells were separated from BMSCs, and processed for Western blot analysis to determine levels of P-STAT3, STAT3, P-JNK, JNK, P-MAPK, and MAPK (FIG. 7).
# AML cell line HL60 = assay: Adhesion mediated drug resistance, HL60 cocultured with BMSC, ara-C, apoptosis; assay type: cell-based; conditions: natalizumab combined with ara-C 10 μM, 24 hours
# Method: as §1
# Culturing the AML cell line HL60 in the presence of BMSC conferred a protective advantage to the cells when treated with the chemotherapeutic agent ara-C, as shown in FIG. 6A. Cells were cultured for 24 hours with (▴) or without (□) BMSC, then exposed to the chemotherapy drug AraC (cytarabine) for 24 hours (FIG. 6A). Cell viability was enhanced by the presence of BMSC.
# [4] = target: T1, VLA-4 on tumor cell lines (Homo sapiens, UniProt P13612); assay: Binding of natalizumab to AML, CLL and MM tumor cell lines by flow cytometry (all lines)
# T1 construct: VLA-4 expression was observed on all cell lines tested; endogenous in cells; host or cells: HL60, KG1 (AML); U266, H929 (MM); Mec1, JM1 (CLL)
# Method: FIG. 2 is a graph depicting binding of natalizumab to VLA-4 on tumor cell lines as measured by flow cytometry.
# (§3) Flow cytometry experiments were performed to assess the level of VLA-4 expression on tumor cell lines, and VLA-4 expression was observed on all cell lines tested (FIG. 1).).
# [5] = target: T2, VLA-4 (alpha4beta1 integrin) on hematologic tumor cell lines (UniProt P13612 34-1032; P05556 21-798); assay: inhibition of U266 cell adhesion to wells coated with fibronectin (FN)
# T2 construct: whole, on cells; also called a4β1 integrin
# Method: as §2
# (§4) Experiments were conducted to test whether a VLA-4 antagonist can inhibit binding of tumor cells to a VLA-4 ligand. Cell lines were allowed to adhere to wells coated with fibronectin (• FN), vascular adhesion molecule-1-Ig fusion protein (▪ VCAM-Ig), or bone marrow stromal cells (▴ BMSC), in the presence of increasing concentrations of natalizumab or isotype control antibody.
# [6] = target: T2, VLA-4 (alpha4beta1 integrin) on …; assay: inhibition of HL60 cell adhesion to wells coated with VCAM-Ig
# Method: as §4
# [7] = target: T2, VLA-4 (alpha4beta1 integrin) on …; assay: inhibition of H929 cell adhesion to wells coated with VCAM-Ig
# Method: as §2, §4
# [8] = target: T2, VLA-4 (alpha4beta1 integrin) on …; assay: inhibition of JM1 cell adhesion to wells coated with VCAM-Ig
# Method: as §2, with “5A” for “4A”, “5B” for “4B”, “Mec1” for “H929”, “JM1 CLL” for “U266 mM”
# as §4
# [9] = target: T2, VLA-4 (alpha4beta1 integrin) on …; assay: flow cytometry, binding to Mec1 (CLL) cells
# Method: as §3
# [10] = target: T2, VLA-4 (alpha4beta1 integrin) on …; assay: inhibition of KG1 cell adhesion to wells coated with VCAM-Ig
# Method: as §4
# [11] = target: T2, VLA-4 (alpha4beta1 integrin) on …; assay: flow cytometry, binding to U266 (MM) cells
# Method: as §3
# [12] = target: T2, VLA-4 (alpha4beta1 integrin) on …; assay: inhibition of JM1 cell adhesion to wells coated with fibronectin (FN)
# Method: as §2, with “5A” for “4A”, “5B” for “4B”, “Mec1” for “H929”, “JM1 CLL” for “U266 mM”
# as §4
# [13] = target: T2, VLA-4 (alpha4beta1 integrin) on …; assay: inhibition of H929 cell adhesion to wells coated with fibronectin (FN)
# Method: as §2, §4
# [14] = target: T2, VLA-4 (alpha4beta1 integrin) on …; assay: inhibition of Mec1 cell adhesion to wells coated with fibronectin (FN)
# Method: as §2, with “5A” for “4A”, “5B” for “4B”, “Mec1” for “H929”, “JM1 CLL” for “U266 mM”
# as §4
# [15] = target: T2, VLA-4 (alpha4beta1 integrin) on …; assay: cell-based or functional assay
# [16] = target: T2, VLA-4 (alpha4beta1 integrin) on …; assay: flow cytometry, binding to JM1 (CLL) cells
# Method: as §3
# [17] = target: T2, VLA-4 (alpha4beta1 integrin) on …; assay: inhibition of HL60 cell adhesion to wells coated with fibronectin (FN)
# Method: as §4
# [18] = target: T2, VLA-4 (alpha4beta1 integrin) on …; assay: inhibition of KG1 cell adhesion to wells coated with fibronectin (FN)
# Method: as §4
# [19] = target: T2, VLA-4 (alpha4beta1 integrin) on …; assay: flow cytometry, binding to H929 (MM) cells
# Method: as §3
# [20] = target: T2, VLA-4 (alpha4beta1 integrin) on …; assay: flow cytometry, binding to KG1 (AML) cells
# Method: as §3
# [21] = target: T2, VLA-4 (alpha4beta1 integrin) on …; assay: inhibition of U266 cell adhesion to wells coated with VCAM-Ig
# Method: as §2, §4
# [22] = target: T2, VLA-4 (alpha4beta1 integrin) on …; assay: flow cytometry, binding to HL60 (AML) cells
# Method: as §3
# [23] = target: T2, VLA-4 (alpha4beta1 integrin) on …; assay: inhibition of Mec1 cell adhesion to wells coated with VCAM-Ig
# Method: as §2, with “5A” for “4A”, “5B” for “4B”, “Mec1” for “H929”, “JM1 CLL” for “U266 mM”
# as §4
molecule,measurement,setting,value
Arg-Cys-Asp-TPro-Cys,Inhibition of VLA-4 and VLA-5 adhesion to fibronectin,[1],can inhibit both VLA-4 and VLA-5 adhesion to fibronectin
Glu-Ile-Leu-Asp-Val (EILDV; printed: Glu-Ile-Leu-Asp-Val) [pentapeptide from the CS-1 region of fibronectin],Inhibitory activity against fibronectin-dependent cell adhesion,[2],possessed inhibitory activity
Glu-Ile-Leu-Asp-Val-Pro-Ser-Thr,Inhibitory activity against fibronectin-dependent cell adhesion,[2],possessed inhibitory activity
Leu-Asp-Val-Pro-Ser (LDVPS; printed: Leu-Asp-Val-Pro-Ser) [pentapeptide from the CS-1 region of fibronectin],Inhibitory activity against fibronectin-dependent cell adhesion,[2],possessed inhibitory activity
Natalizumab,Effect on cell adhesion mediated resistance to melphalan,MM cell line U226,did not have a cytoprotective effect
same,Inhibition of tumor cell binding to VLA-4 ligands at saturating levels,[3],inhibit binding in all cell types assayed
same,Coculture-induced survival signaling through P-STAT3,P-STAT3,can be inhibited
same,Percentage of cells undergoing apoptosis,AML cell line HL60,increase in the percentage of cells undergoing apoptosis
same,"Binding to AML, CLL and MM tumor cell lines",[4],saturable binding was observed
B1,IC50,[5],400 pM
same,IC50,[6],920 pM
same,IC50,[7],450 pM
same,IC50,[8],190 pM
same,EC50,[9],110 pM
same,IC50,[10],190 pM
same,EC50,[11],300 pM
same,IC50,[12],11600 pM
same,IC50,[13],400 pM
same,IC50,[14],390 pM
same,IC50 (nM) of inhibition of H929 (MM) cell adhesion to bone marrow stromal cells (BMSC),[15],1.74 nM
same,IC50 (nM) of inhibition of HL60 (AML) cell adhesion to bone marrow stromal cells (BMSC),[15],13.7 nM
same,IC50 (nM) of inhibition of U266 (MM) cell adhesion to bone marrow stromal cells (BMSC),[15],0.53 nM
same,EC50,[16],280 pM
same,IC50,[17],500 pM
same,IC50,[18],100 pM
same,EC50,[19],800 pM
same,EC50,[20],220 pM
same,IC50,[21],260 pM
same,EC50,[22],190 pM
same,IC50,[23],220 pM
